Starred links: 1 amine or outer side, 2 acyl side, 3 side chain; linkers in the order of their positions; H or OH if unused. Non-standard residues stand in square brackets, D forms with d. Groups on a side chain read outwards from the residue. No end group written: not given here. *: point of attachment. C20 diacid = O=C(O)CCCCCCCCCCCCCCCCCCC(=O)*; C18 diacid = O=C(O)CCCCCCCCCCCCCCCCC(=O)*; γGlu = O=C(O)[C@H](CCC(=O)[*:2])N[*:1]; εLys = N[C@@H](CCCCN[*:1])C(=O)[*:2]; Aib = CC(C)(N)C(=O)O
T1: human GIP receptor (human, UniProt P48546 22-466)
T1 sequence (looked up): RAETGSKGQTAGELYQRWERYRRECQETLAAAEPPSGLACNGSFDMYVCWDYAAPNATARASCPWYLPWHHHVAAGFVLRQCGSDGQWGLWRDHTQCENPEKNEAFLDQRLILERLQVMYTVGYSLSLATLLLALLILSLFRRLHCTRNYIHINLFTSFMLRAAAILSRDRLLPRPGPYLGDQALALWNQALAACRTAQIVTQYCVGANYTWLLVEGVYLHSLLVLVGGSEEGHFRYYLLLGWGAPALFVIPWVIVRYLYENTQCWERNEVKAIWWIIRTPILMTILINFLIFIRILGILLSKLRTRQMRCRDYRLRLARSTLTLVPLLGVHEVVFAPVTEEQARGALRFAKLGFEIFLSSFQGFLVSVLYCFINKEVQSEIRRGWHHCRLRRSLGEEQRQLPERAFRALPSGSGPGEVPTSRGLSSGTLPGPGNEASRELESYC


How the values were obtained:
human GLP-1 receptor = human GLP-1 receptor (human, UniProt P43220 24-463); assay: cell-based or functional assay
human GIP receptor = biological target: T1, human GIP receptor; assay: cell-based or functional assay

| Binder | hGLP-1R, CRE Luc 0% HSA EC50 (pM) (human GLP-1 receptor) | hGLP-1R, CRE Luc 1% HSA EC50 (pM) (human GLP-1 receptor) | hGIPR, CRE Luc 0% HSA EC50 (pM) (human GIP receptor) | hGIPR, CRE Luc 1% HSA EC50 (pM) (human GIP receptor) |
| --- | --- | --- | --- | --- |
| Y[Aib]EGTFTSDYSYYLEK([εLys-εLys-γGlu-C20 diacid])QAAQEFVNWLLAGGPSSGAPPPS-NH2 (N-terminus assumed; SMILES CC(C)C[C@H](NC(=O)[C@H](CC(C)C)NC(=O)[C@H](Cc1c[nH]c2ccccc12)NC(=O)[C@H](CC(N)=O)NC(=O)[C@@H](NC(=O)[C@H](Cc1ccccc1)NC(=O)[C@H](CCC(=O)O)NC(=O)[C@H](CCC(N)=O)NC(=O)[C@H](C)NC(=O)[C@H](C)NC(=O)[C@H](CCC(N)=O)NC(=O)[C@H](CCCCNC(=O)[C@@H](N)CCCCNC(=O)[C@@H](N)CCCCNC(=O)CC[C@H](NC(=O)CCCCCCCCCCCCCCCCCCC(=O)O)C(=O)O)NC(=O)[C@H](CCC(=O)O)NC(=O)[C@H](CC(C)C)NC(=O)[C@H](Cc1ccc(O)cc1)NC(=O)[C@H](Cc1ccc(O)cc1)NC(=O)[C@H](CO)NC(=O)[C@H](Cc1ccc(O)cc1)NC(=O)[C@H](CC(=O)O)NC(=O)[C@H](CO)NC(=O)[C@@H](NC(=O)[C@H](Cc1ccccc1)NC(=O)[C@@H](NC(=O)CNC(=O)[C@H](CCC(=O)O)NC(=O)C(C)(C)NC(=O)[C@@H](N)Cc1ccc(O)cc1)[C@@H](C)O)[C@@H](C)O)C(C)C)C(=O)N[C@@H](C)C(=O)NCC(=O)NCC(=O)N1CCC[C@H]1C(=O)N[C@@H](CO)C(=O)N[C@@H](CO)C(=O)NCC(=O)N[C@@H](C)C(=O)N1CCC[C@H]1C(=O)N1CCC[C@H]1C(=O)N1CCC[C@H]1C(=O)N[C@@H](CO)C(N)=O) [Compound No. 2] | 6 | 900 | 3.8 | 275 |
| Y[Aib]EGTFTSDYSILLEK([εLys-εLys-γGlu-C18 diacid])QAAREFVNWLLAGGPSSGAPPPS-OH (N-terminus assumed; SMILES CC[C@H](C)[C@H](NC(=O)[C@H](CO)NC(=O)[C@H](Cc1ccc(O)cc1)NC(=O)[C@H](CC(=O)O)NC(=O)[C@H](CO)NC(=O)[C@@H](NC(=O)[C@H](Cc1ccccc1)NC(=O)[C@@H](NC(=O)CNC(=O)[C@H](CCC(=O)O)NC(=O)C(C)(C)NC(=O)[C@@H](N)Cc1ccc(O)cc1)[C@@H](C)O)[C@@H](C)O)C(=O)N[C@@H](CC(C)C)C(=O)N[C@@H](CC(C)C)C(=O)N[C@@H](CCC(=O)O)C(=O)N[C@@H](CCCCNC(=O)[C@@H](N)CCCCNC(=O)[C@@H](N)CCCCNC(=O)CC[C@H](NC(=O)CCCCCCCCCCCCCCCCC(=O)O)C(=O)O)C(=O)N[C@@H](CCC(N)=O)C(=O)N[C@@H](C)C(=O)N[C@@H](C)C(=O)N[C@@H](CCCNC(=N)N)C(=O)N[C@@H](CCC(=O)O)C(=O)N[C@@H](Cc1ccccc1)C(=O)N[C@H](C(=O)N[C@@H](CC(N)=O)C(=O)N[C@@H](Cc1c[nH]c2ccccc12)C(=O)N[C@@H](CC(C)C)C(=O)N[C@@H](CC(C)C)C(=O)N[C@@H](C)C(=O)NCC(=O)NCC(=O)N1CCC[C@H]1C(=O)N[C@@H](CO)C(=O)N[C@@H](CO)C(=O)NCC(=O)N[C@@H](C)C(=O)N1CCC[C@H]1C(=O)N1CCC[C@H]1C(=O)N1CCC[C@H]1C(=O)N[C@@H](CO)C(=O)O)C(C)C) [Compound No. 22] | 2.8 | 170 | 6.2 | 169 |
| Y[Aib]EGTFTSDYSILLEK([εLys-εLys-γGlu-C18 diacid])QAAREFIQWLLAGGPSSGAPPPS-OH (N-terminus assumed; SMILES CC[C@H](C)[C@H](NC(=O)[C@H](Cc1ccccc1)NC(=O)[C@H](CCC(=O)O)NC(=O)[C@H](CCCNC(=N)N)NC(=O)[C@H](C)NC(=O)[C@H](C)NC(=O)[C@H](CCC(N)=O)NC(=O)[C@H](CCCCNC(=O)[C@@H](N)CCCCNC(=O)[C@@H](N)CCCCNC(=O)CC[C@H](NC(=O)CCCCCCCCCCCCCCCCC(=O)O)C(=O)O)NC(=O)[C@H](CCC(=O)O)NC(=O)[C@H](CC(C)C)NC(=O)[C@H](CC(C)C)NC(=O)[C@@H](NC(=O)[C@H](CO)NC(=O)[C@H](Cc1ccc(O)cc1)NC(=O)[C@H](CC(=O)O)NC(=O)[C@H](CO)NC(=O)[C@@H](NC(=O)[C@H](Cc1ccccc1)NC(=O)[C@@H](NC(=O)CNC(=O)[C@H](CCC(=O)O)NC(=O)C(C)(C)NC(=O)[C@@H](N)Cc1ccc(O)cc1)[C@@H](C)O)[C@@H](C)O)[C@@H](C)CC)C(=O)N[C@@H](CCC(N)=O)C(=O)N[C@@H](Cc1c[nH]c2ccccc12)C(=O)N[C@@H](CC(C)C)C(=O)N[C@@H](CC(C)C)C(=O)N[C@@H](C)C(=O)NCC(=O)NCC(=O)N1CCC[C@H]1C(=O)N[C@@H](CO)C(=O)N[C@@H](CO)C(=O)NCC(=O)N[C@@H](C)C(=O)N1CCC[C@H]1C(=O)N1CCC[C@H]1C(=O)N1CCC[C@H]1C(=O)N[C@@H](CO)C(=O)O) [Compound No. 23] | 4.1 | 118 | 6.7 | 134 |
| Y[Aib]EGTFTSDYSILLEK([εLys-εLys-γGlu-C18 diacid])QAAQEFINWLLAGGPSSGAPPPS-OH (N-terminus assumed; SMILES CC[C@H](C)[C@H](NC(=O)[C@H](Cc1ccccc1)NC(=O)[C@H](CCC(=O)O)NC(=O)[C@H](CCC(N)=O)NC(=O)[C@H](C)NC(=O)[C@H](C)NC(=O)[C@H](CCC(N)=O)NC(=O)[C@H](CCCCNC(=O)[C@@H](N)CCCCNC(=O)[C@@H](N)CCCCNC(=O)CC[C@H](NC(=O)CCCCCCCCCCCCCCCCC(=O)O)C(=O)O)NC(=O)[C@H](CCC(=O)O)NC(=O)[C@H](CC(C)C)NC(=O)[C@H](CC(C)C)NC(=O)[C@@H](NC(=O)[C@H](CO)NC(=O)[C@H](Cc1ccc(O)cc1)NC(=O)[C@H](CC(=O)O)NC(=O)[C@H](CO)NC(=O)[C@@H](NC(=O)[C@H](Cc1ccccc1)NC(=O)[C@@H](NC(=O)CNC(=O)[C@H](CCC(=O)O)NC(=O)C(C)(C)NC(=O)[C@@H](N)Cc1ccc(O)cc1)[C@@H](C)O)[C@@H](C)O)[C@@H](C)CC)C(=O)N[C@@H](CC(N)=O)C(=O)N[C@@H](Cc1c[nH]c2ccccc12)C(=O)N[C@@H](CC(C)C)C(=O)N[C@@H](CC(C)C)C(=O)N[C@@H](C)C(=O)NCC(=O)NCC(=O)N1CCC[C@H]1C(=O)N[C@@H](CO)C(=O)N[C@@H](CO)C(=O)NCC(=O)N[C@@H](C)C(=O)N1CCC[C@H]1C(=O)N1CCC[C@H]1C(=O)N1CCC[C@H]1C(=O)N[C@@H](CO)C(=O)O) [Compound No. 24] | 12.1 | 490 | 3.9 | 115 |
| Y[Aib]EGTFTSDYSILLEK([εLys-εLys-γGlu-C18 diacid])QAAEEFINWLLAGGPSSGAPPPS-OH (N-terminus assumed; SMILES CC[C@H](C)[C@H](NC(=O)[C@H](Cc1ccccc1)NC(=O)[C@H](CCC(=O)O)NC(=O)[C@H](CCC(=O)O)NC(=O)[C@H](C)NC(=O)[C@H](C)NC(=O)[C@H](CCC(N)=O)NC(=O)[C@H](CCCCNC(=O)[C@@H](N)CCCCNC(=O)[C@@H](N)CCCCNC(=O)CC[C@H](NC(=O)CCCCCCCCCCCCCCCCC(=O)O)C(=O)O)NC(=O)[C@H](CCC(=O)O)NC(=O)[C@H](CC(C)C)NC(=O)[C@H](CC(C)C)NC(=O)[C@@H](NC(=O)[C@H](CO)NC(=O)[C@H](Cc1ccc(O)cc1)NC(=O)[C@H](CC(=O)O)NC(=O)[C@H](CO)NC(=O)[C@@H](NC(=O)[C@H](Cc1ccccc1)NC(=O)[C@@H](NC(=O)CNC(=O)[C@H](CCC(=O)O)NC(=O)C(C)(C)NC(=O)[C@@H](N)Cc1ccc(O)cc1)[C@@H](C)O)[C@@H](C)O)[C@@H](C)CC)C(=O)N[C@@H](CC(N)=O)C(=O)N[C@@H](Cc1c[nH]c2ccccc12)C(=O)N[C@@H](CC(C)C)C(=O)N[C@@H](CC(C)C)C(=O)N[C@@H](C)C(=O)NCC(=O)NCC(=O)N1CCC[C@H]1C(=O)N[C@@H](CO)C(=O)N[C@@H](CO)C(=O)NCC(=O)N[C@@H](C)C(=O)N1CCC[C@H]1C(=O)N1CCC[C@H]1C(=O)N1CCC[C@H]1C(=O)N[C@@H](CO)C(=O)O) [Compound No. 25] | 15.5 | 740 | 7.2 | 263 |
| Y[Aib]EGTFTSDYSIYLEK([εLys-εLys-γGlu-C18 diacid])QAAREFIEWLLAGGPSSGAPPPS-OH (N-terminus assumed; SMILES CC[C@H](C)[C@H](NC(=O)[C@H](Cc1ccccc1)NC(=O)[C@H](CCC(=O)O)NC(=O)[C@H](CCCNC(=N)N)NC(=O)[C@H](C)NC(=O)[C@H](C)NC(=O)[C@H](CCC(N)=O)NC(=O)[C@H](CCCCNC(=O)[C@@H](N)CCCCNC(=O)[C@@H](N)CCCCNC(=O)CC[C@H](NC(=O)CCCCCCCCCCCCCCCCC(=O)O)C(=O)O)NC(=O)[C@H](CCC(=O)O)NC(=O)[C@H](CC(C)C)NC(=O)[C@H](Cc1ccc(O)cc1)NC(=O)[C@@H](NC(=O)[C@H](CO)NC(=O)[C@H](Cc1ccc(O)cc1)NC(=O)[C@H](CC(=O)O)NC(=O)[C@H](CO)NC(=O)[C@@H](NC(=O)[C@H](Cc1ccccc1)NC(=O)[C@@H](NC(=O)CNC(=O)[C@H](CCC(=O)O)NC(=O)C(C)(C)NC(=O)[C@@H](N)Cc1ccc(O)cc1)[C@@H](C)O)[C@@H](C)O)[C@@H](C)CC)C(=O)N[C@@H](CCC(=O)O)C(=O)N[C@@H](Cc1c[nH]c2ccccc12)C(=O)N[C@@H](CC(C)C)C(=O)N[C@@H](CC(C)C)C(=O)N[C@@H](C)C(=O)NCC(=O)NCC(=O)N1CCC[C@H]1C(=O)N[C@@H](CO)C(=O)N[C@@H](CO)C(=O)NCC(=O)N[C@@H](C)C(=O)N1CCC[C@H]1C(=O)N1CCC[C@H]1C(=O)N1CCC[C@H]1C(=O)N[C@@H](CO)C(=O)O) [Compound No. 9] | 3.8 | 279 |  |  |

Source: patent US20230272029A1, “CO-AGONISTS AT GLP-1 AND GIP RECEPTORS SUITABLE FOR ORAL DELIVERY” (Novo Nordisk A/S, priority 2020, published 2023)
